From the nanobody polyreactivity screen of Harvey et al. (2022)

Test: yeast display, Sf9 membrane polyspecificity reagent, FACS + sequencing; frameworks hold sequencing errors
Procedure, shortened: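 A nanobody's polyreactivity label depends on the gate it was sorted from. Yeast display cells were stained with 10% biotinylated, detergent-solubilized Sf9 membrane reagent for 1 hour at 4 °C, enriched on streptavidin microbeads and sorted by FACS. The low and high (top ~1%) gates were set on anti-HA fluorescence for expression and streptavidin fluorescence for reagent binding.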

QVQLVESGGGLVQAGGSLRLSCAASGITFFRYAMGWYRQAPGKERELVATIRSGDRTYYADSVKGRFTISRDNAKNTVYLQMNSLKPEDTAVYYCAAYDNRYTIRPENYWGQGTQVTVSS
polyreactivity (PSR sort gate): high polyreactivity

QVQLVESGGGLVQAGGSLRLSCAASGITFFTYAMGWYRQAPGKERELVATISRSGGRTYYADSVKGRFTISRDNAKNTVYLQMNSLKPEDTAVYYCAARTYYWGALIVSYDYWGQGTQVTVSS
polyreactivity (PSR sort gate): low polyreactivity

QVQLVESGGGLVQAGGSLRLSCAASGITFFYNAMGWYRQAPGKERELVAAISTSGGSTHYADSVKGRFTISRDIAKNTVYLQMNSLKPEDTAVYYCAARGRYRLYGYWGQGTQVTVSS
polyreactivity (PSR sort gate): high polyreactivity

QVQLVESGGGLVQAGGSLRLSCAASGITFFYYAMGWYTQAPGKERELVAAISTSGGRTYYADSVKGRFTISRDNAKNTVYLQMHSLKPEDTAVYYCAARSRVQPAGPRYDYWGQGTQVTVSS
polyreactivity (PSR sort gate): high polyreactivity

QVQLVESGGGLVQAGGSLRLSCAASGITFGANALGWYRQAPGKERELVAEITWSGGDTYYADSVKGRFTISRDNAKNTVYLQMNSLKPEDTAVYYCNALQPGLGSPLGEYDYWGQGTQVTVSS
polyreactivity (PSR sort gate): low polyreactivity

QVQLVESGGGLVQAGGSLRLSCAASGITFGANTMGCYRQAPGKERELVSAITISGGITHYADSVKGRVTISRDNAKHTVYLQLNSLKPEDTAVNYCAAGAYWRLYPYRQRNGGRRYYWGQGTQVTVSW
polyreactivity (PSR sort gate): low polyreactivity

QVQLVESGGGLVQAGGSLRLSCAASGITFGDNAMGWYRQAPGKERELVAAISSGGSTDYADSVKGRFTISRDNAKNTVYLQMNSLNPEDTAVYYCAVDWVSVPEYDYWGQGTQVTVSS
polyreactivity (PSR sort gate): low polyreactivity

QVQLVESGGGLVQAGGSLRLSCAASGITFGEYAMGWYRQAPGKERQLVAAITTSGTSTYYADSVKGRFTISRDNAKNTDYLQMNSLKPEDTAVYYCAAYSRAAAGFYSSRRDYYWGQGTQVSVSS
polyreactivity (PSR sort gate): low polyreactivity

QVQLVESGGGLVQAGGSLRLSCAASGITFGFNAMGWNRQAPGKERELVAAITWSVGRTYYADSVKGRFTISRDNAKNTVYLQMNSLKPEDTAVYYCAKDFEAGDDYFAYDYWGQGTQVTVSS
polyreactivity (PSR sort gate): low polyreactivity

QVQLVESGGGLVQAGGSLRLSCAASGITFGFNAMGWYRQAPGKERELVAAITWSVGRTYYADSVKGRFTISRDNAKNTVYLQMNSLKPEDTAVYYCAKDFEAGDDYFAYDYWGQGTQVTVSS
polyreactivity (PSR sort gate): low polyreactivity

QVQLVESGGGLVQAGGSLRLSCAASGITFGGNALGWYRQAPGTERELVAGIDDGGSTNYADSVKGRFTISRDNAKNTVYLQMNSLKPEDTAVYYCAVQGHPPLVILPGFLFDYWGQGTQVTVSS
polyreactivity (PSR sort gate): low polyreactivity

QVQLVESGGGLVQAGGSLRLSCAASGITFGGNAMGWSRQAPGKERELVAAIDEGGGSTYYADSVKGRFTISRDNAKNTVYLQMNSLKPEDTAVYYCAADFVYYGYYYWGQGTQVTVSS
polyreactivity (PSR sort gate): low polyreactivity

QVQLVESGGGLVQAGGSLRLSCAASGITFGGNAMGWYRQAPGKERELVAAISRRGGSTYYADSVKGRFTISRDNAKNTVYLQMNSLKPEDTAVYYCAAYDPVNSPGYDYWGQGTQVTVSS
polyreactivity (PSR sort gate): high polyreactivity

QVQLVESGGGLVQAGGSLRLSCAASGITFGIYAMGWDRQAPGKERELVAAISLSGGSTYYADSVKGRFTISRDNAKNTVYLQMNSVKPEDTAVYYCNARRNRYGEYYWGQGTQVTVSS
polyreactivity (PSR sort gate): high polyreactivity

QVQLVESGGGLVQAGGSLRLSCAASGITFGKNAMVWYRQAPGKEREFDAAISWGGGRTYYADSVKGRFTISRDNAKNTVYLQMNSLKPEDTAVYYCNVGPRAGWYRSNYDYWGQGTQVTVSS
polyreactivity (PSR sort gate): low polyreactivity

QVQLVESGGGLVQAGGSLRLSCAASGITFGNYAMGWYRQAPGKDRELVAAITGSGGRTYYADSVKGRFTISRDNAKNTVYLQMNSLKPEDTAVYYCNRRQYGRKKQYDYWGQGTQVTVSS
polyreactivity (PSR sort gate): low polyreactivity

QVQLVESGGGLVQAGGSLRLSCAASGITFGNYAMGWYRQAPGKEREFVAAISQSYGRTYYADSVKGRFTISRDNAKNTVYLQMNSLKPEDTAVYYCAARTRGSSRGDYDYWGQGTQVTVSS
polyreactivity (PSR sort gate): high polyreactivity

QVQLVESGGGLVQAGGSLRLSCAASGITFGPYAMGWYRQAPGKERELVATISSSGGSTYYADSVKGRFTISRDNAKNTVYLQMNSLIPEDTAVYYCNAGYAPYLGAYDYWGQGTQVTVSS
polyreactivity (PSR sort gate): low polyreactivity

QVQLVESGGGLVQAGGSLRLSCAASGITFGQNAMGWYRQAPGKEREYVATITASGSTYYADSVKGRFTISRDNAKNTVYLQMNSLKPEDTAVYYCATRYAGEYYWDYDYWGQGTQVTVSS
polyreactivity (PSR sort gate): high polyreactivity

QVQLVESGGGLVQAGGSLRLSCAASGITFGRNAMGWSRQAPGKERELVAAISRGGSTNYADSVKGRFTISRDNAKNTVYLQMTRLKPEDTAVYYCATAYRGRAWGYDYWGQGTQVTVSS
polyreactivity (PSR sort gate): high polyreactivity

QVQLVESGGGLVQAGGSLRLSCAASGITFGRNTMGWSRQAPGKERELVAAIDSGANTYADSVKGRFTISSDNAKNTVYLQMISLKPEDSAVYYCAVDGGEFSSYGYWGQGTQVTVSW
polyreactivity (PSR sort gate): low polyreactivity

QVQLVESGGGLVQAGGSLRLSCAASGITFGRNTMGWYRQAPGKERELVAAIDSGGNTYADSVKGRFTISRDNAKNTVYLQMNSLKPEDTAVYYCAVDGGEFSSYGYWGQGTEVTVSS
polyreactivity (PSR sort gate): low polyreactivity

QVQLVESGGGLVQAGGSLRLSCAASGITFGRYAMGWYRQAPGKERELVAAISSRTGRTYYADSVKGRFTISRDNAKNTVYLQMNSLKPEDTAVYYCARDSKLSASYDRDDSWGQGTQVTVSS
polyreactivity (PSR sort gate): high polyreactivity

QVQLVESGGGLVQAGGSLRLSCAASGITFGSNTMGLYRQAPGKERELVAVITWSGGSTYYADSVKGRFTISRDNAKNTVYLQMNSLIPEDTAVYDCAKPGEVNGQPPPQTESAYDYRGQGTQVTVSS
polyreactivity (PSR sort gate): low polyreactivity

QVQLVESGGGLVQAGGSLRLSCAASGITFGSYAMGWYRQAPGKERELVATISKSGGSTYYADSVKGRFTISRDNEKNTVYLQMNSLKPEDTAVYYCARRYVAKRMDFWGQGTQVTVSS
polyreactivity (PSR sort gate): high polyreactivity

QVQLVESGGGLVQAGGSLRLSCAASGITFGWYAMGLYRQAPGKERELVAAISTGSSTYYADSVKGRFTISRDNAKNTVYLQMNSLKPEDTAVYYCNAYPGPSGTLYVTPYDYWGQGTQVTVSS
polyreactivity (PSR sort gate): high polyreactivity

QVQLVESGGGLVQAGGSLRLSCAASGITFGYNAMGWYRQAPGKDRELVAAITRSAGSTGYADSVKGRFTISRDNAKNTVYLQMNSLKPEDTAVYYCAAVRLSGSHRYGYWGQGTQVTVSS
polyreactivity (PSR sort gate): high polyreactivity

QVQLVESGGGLVQAGGSLRLSCAASGITFGYYAMGLYRQAPGKERELVAAISWSGGRTYYADSVKGRLTISRDNAKNTVYLQMNSLKPEDTAVYYCATRYPVRRGSGPSYDYWGQGTQVTVSS
polyreactivity (PSR sort gate): high polyreactivity

QVQLVESGGGLVQAGGSLRLSCAASGITFGYYAMGWSRQAAGKEWELVAAISSGGGTYYADSVKGRFTISRDNAKNTVYLQMNSLKPEDTAVYYCNVLRLYPSMDYWGHGTQVTVSS
polyreactivity (PSR sort gate): high polyreactivity

QVQLVESGGGLVQAGGSLRLSCAASGITFGYYAMGWYRQAPGKERELVAAISSGGRTYYADSVKGRFTIARDNAKNTVYLQMNSLKPEDTGVYYCAVVARHPSRMDYWGQGTQVTVSS
polyreactivity (PSR sort gate): high polyreactivity

QVQLVESGGGLVQAGGSLRLSCAASGITFGYYAMGWYRQAPGKERELVAAITYSGGSTYYADSVKGRFTISRDNAKNTVYLQMNSLKPEDTAVYYCNADWWAYYSFGHEYWGQGTQVTVSS
polyreactivity (PSR sort gate): low polyreactivity

QVQLVESGGGLVQAGGSLRLSCAASGITFGYYAMGWYRQAPGKERELVASITSGGSTNYADSVKGRFTISRDNAKNTVYLQMNSLKPEDTAVYYCAKRYYRQYDYWGQGTQVTVSS
polyreactivity (PSR sort gate): low polyreactivity

QVQLVESGGGLVQAGGSLRLSCAASGITFGYYAMGWYRQAPGKERELVATITDGGGTKYADSVKGRFTISRDNAKNTVYLQMNSLKPEDTAVYYCAAGLRHVYATEYDYWGQGTQVTVSS
polyreactivity (PSR sort gate): low polyreactivity

QVQLVESGGGLVQAGGSLRLSCAASGITFHPYALGWYRQAPGKERELVARIRSTGSTNYADSVKGRFTISRDNAKNTVYLQMNSLKPEDTAVYYCAATFRTGWRPYSFYYWGQGTQVTVSS
polyreactivity (PSR sort gate): high polyreactivity

QVQLVESGGGLVQAGGSLRLSCAASGITFHRYAMGWYRQAPGKERELVAGINGRGGSTYYADSVKGRFTISRDNAKNTVYLQMNSLKPEDTAVYYCNAVYAGRYFGFDYWGQGTQVTVSS
polyreactivity (PSR sort gate): high polyreactivity

QVQLVESGGGLVQAGGSLRLSCAASGITFHYNAMGWYRQAPGKERELVAAISGSGSNTYYADSVKGRFTISRDNAKNTVYLQMNSLKPEDTAVYYCAKYYYSSNKWMDYWGQGTQVTVSP
polyreactivity (PSR sort gate): high polyreactivity

QVQLVESGGGLVQAGGSLRLSCAASGITFIDYAMGGYRQAPGKVRELVAAITVRGSTYYADSVKGRFTISRDNAKNTVYLQMNSLKPEDTAVYYCAADTYVAADSPVTGERDSFDYWGQGTQVTVSS
polyreactivity (PSR sort gate): low polyreactivity

QVQLVESGGGLVQAGGSLRLSCAASGITFKRYAMGWYIQAPGKERELVAAISDIGGRTYYADSVKGRFTISRDNAKNTVYLQMNSLKPEDTEVYYCAADYYSPVDWYYYWGQGTQVTVSS
polyreactivity (PSR sort gate): high polyreactivity

QVQLVESGGGLVQAGGSLRLSCAASGITFKRYAMGWYRQAPGKERELVAAINGSGGRTYYADSVKGRFTISRDNAKNTVYLQMNSLKPEDTAVYYCNARHIYPSHYDYWGQGTQVTVSS
polyreactivity (PSR sort gate): high polyreactivity

QVQLVESGGGLVQAGGSLRLSCAASGITFKRYAMGWYRQAPGKESELVATITWRDGSTYYADSVKGRFTISRDNAKNTVYLQMNSLKPEDTAVYYCAVAAYSRRSPYYHYNYWGQGTQVTVSS
polyreactivity (PSR sort gate): high polyreactivity

QVQLVESGGGLVQAGGSLRLSCAASGITFKSNAMGWYRQAPGKERELVAAISRRASSTYYADSVKGRFTISRDNAKNTVYLQRNSLNPEDTAVYYCNAVLPVYRTNMDYWGQGTQVSVSS
polyreactivity (PSR sort gate): high polyreactivity

QVQLVESGGGLVQAGGSLRLSCAASGITFLDYAMGWYRQAPGQERELVAAISKRGGSTYYADSVKGRFTISRDKAKNTVYLQMNSLKPEDTAVYYCAAYYHSVRNDYFYYWGQGTQVTVSS
polyreactivity (PSR sort gate): high polyreactivity

QVQLVESGGGLVQAGGSLRLSCAASGITFLKYAMGWYRQATGKEREFVAAISRRGGSTYYADSVKGRFTISRDNAKNTVYLQMNSLKPEDTAVYYCAALTVRGTWSQNDYWGQGTQVTVSS
polyreactivity (PSR sort gate): low polyreactivity
